Reference: the supplement of paper PMC9112550, “Optimization of the antimicrobial peptide Bac7 by deep mutational scanning” (BMC Biology, 2022)

tested on: Escherichia coli TOP10; experiment: shrunken log2 fold change of peptide-encoding DNA abundance (4.5 h post-induction vs induction); higher = less antimicrobial activity (less host growth inhibition); details: time post-induction: 4.5 h; library: site-saturation at positions 5, 18, 19, 20
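Further: peptides expressed intracellularly from a pBAD plasmid library in pooled LB shake-flask culture, induced with 0.3% L-arabinose, DNA abundance read by NGS, three biological replicates, DESeq2 with apeglm shrinkage.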

Compared with RRIRNRPPRLPRPRPRPLTNPRP, RRIRRRPPRLPRPRPRPVEMPRP is higher in “shrunken log2 fold change” value: 0.00172 for the first, 0.483 for the second.

Going from RRIRRRPPRLPRPRPRPNTYPRP to RRIRPRPPRLPRPRPRPCKKPRP, the “shrunken log2 fold change” value rises from -0.336 to -0.0659.

Compared with RRIRARPPRLPRPRPRPAFWPRP, RRIRERPPRLPRPRPRPQDYPRP is lower in “shrunken log2 fold change” value: 0.673 for the first, -0.091 for the second.

First: RRIRNRPPRLPRPRPRPPTDPRP
Second: RRIRRRPPRLPRPRPRPTTYPRP
The “shrunken log2 fold change” value of the first is higher: 0.992 for the first, -0.221 for the second.

RRIRFRPPRLPRPRPRPTGSPRP and RRIRERPPRLPRPRPRPMSDPRP are within 0.2 log units of each other in “shrunken log2 fold change” value: -0.103 for the first, -0.235 for the second.

Compared with RRIRRRPPRLPRPRPRPTHSPRP, RRIRVRPPRLPRPRPRPCREPRP is lower in “shrunken log2 fold change” value: 0.775 for the first, -0.0897 for the second.

RRIRLRPPRLPRPRPRPTCCPRP and RRIRFRPPRLPRPRPRPHTTPRP are within 0.2 log units of each other in “shrunken log2 fold change” value: -0.013 for the first, -0.155 for the second.

RRIRIRPPRLPRPRPRPMHGPRP and RRIRQRPPRLPRPRPRPQYLPRP are within 0.2 log units of each other in “shrunken log2 fold change” value: -0.216 for the first, -0.131 for the second.

RRIRLRPPRLPRPRPRPCTVPRP and RRIRERPPRLPRPRPRPNEIPRP are within 0.2 log units of each other in “shrunken log2 fold change” value: -0.0157 for the first, -0.181 for the second.

Going from RRIRHRPPRLPRPRPRPVYQPRP to RRIRGRPPRLPRPRPRPWDAPRP, the “shrunken log2 fold change” value rises from -0.359 to 0.142.

RRIRCRPPRLPRPRPRPTMGPRP and RRIRDRPPRLPRPRPRPNHFPRP are within 0.2 log units of each other in “shrunken log2 fold change” value: -0.136 for the first, -0.189 for the second.

Going from RRIRDRPPRLPRPRPRPQACPRP to RRIRSRPPRLPRPRPRPSVFPRP, the “shrunken log2 fold change” value falls from 0.303 to -0.23.
